Experimental data reported in article PMC3880588.
Residue numbers refer to the chain shown, from its start.

Key:
Assay in all cases: EMSA
[1] = test system: T1, MBNL-N-M12 F36A;Y68A, Q9NR56-5; conditions: no stable complex up to 2 uM; EMSA: 10 mM HEPES pH 7.9, 3 mM MgCl2, 10 uM ZnCl2, 5% glycerol, 1 mM DTT, 20 ug/ml rRNA, 10 fmol RNA in 5 ul, 30 C 15 min, then heparin 5 min; 5% PAGE at 4 C …
T1 sequence: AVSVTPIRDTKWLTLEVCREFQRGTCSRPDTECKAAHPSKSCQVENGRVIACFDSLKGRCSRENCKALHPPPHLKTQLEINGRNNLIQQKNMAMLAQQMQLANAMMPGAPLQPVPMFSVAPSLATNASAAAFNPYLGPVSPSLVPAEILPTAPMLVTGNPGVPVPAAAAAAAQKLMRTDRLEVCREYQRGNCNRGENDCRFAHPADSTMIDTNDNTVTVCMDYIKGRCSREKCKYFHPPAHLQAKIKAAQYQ

[2] = test system: T2, MBNL-N-M34 F202A;Y236A, Q9NR56-5; conditions: EMSA: 10 mM HEPES pH 7.9, 3 mM MgCl2, 10 uM ZnCl2, 5% glycerol, 1 mM DTT, 20 ug/ml rRNA, 10 fmol RNA in 5 ul, 30 C 15 min, then heparin 5 min; 5% PAGE at 4 C …
T2 sequence: T1 sequence with A35F, A67Y, F201A, Y235A

[3] = test system: T3, MBNL1-2-72, Q9NR56-5; conditions: no binding at any concentration (up to 2000 nM); EMSA: 10 mM HEPES pH 7.9, 3 mM MgCl2, 10 uM ZnCl2, 5% glycerol, 1 mM DTT, 20 ug/ml rRNA, 10 fmol RNA in 5 ul, 30 C 15 min, then heparin 5 min; 5% PAGE at 4 C …
T3 sequence: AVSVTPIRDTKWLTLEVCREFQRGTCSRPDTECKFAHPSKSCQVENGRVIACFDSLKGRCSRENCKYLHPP

Row | Sequence | Kd [1] [nM] | fold decrease in binding affinity vs WT (fold lower affinity than WT MBNL1-N) [2] | Kd [3] [nM]
1 | GGGAGACAAGCUUAAGUCUACGCACCCUCAACCCGCACCUUGCGGGAUCACGCUGCCUGCUGCACCCCACCCCCUUCCCCCUUCCUUCCCCCCACCCCCGUACUCCACUGCCAACUCCCAG [Tpm1 URE RNA] | > 2000 | 20 | > 2000
2 | GGGAGACAAGCUUGAGCUGGAUGCCGCCUCUGCUGCUGC [Tpm1 Dugc RNA] | > 2000 | 20 | > 2000
3 | GGGAGACAAGCUUUGCAAACUGUUAAUCUCAACUAACUGCCGCUUAAAUAAUUAGUGCAGCUUUUAACUACUGGUUCUGUCCCAACUGGCUACUUGUGCCUAAAGCCCAAAGAAUU [Vldlr RNA] | > 2000 | 20 | > 2000
